Source: US6858425

Tested on: mannose 6-phosphate receptors on the cell surface of fibroblasts

Substance: recombinant human acid α-glucosidase produced in the milk of transgenic mice
- restoration of acid α-glucosidase activity in GSD II patient fibroblasts after 20 hours with the enzyme: Under these conditions acid α-glucosidase of the patient fibroblasts was restored to the level measured in fibroblasts from healthy individuals
- restoration of acid α-glucosidase activity in GSD II patient fibroblasts, with 5 mM mannose 6-phosphate as a competitor: Restoration by α-glucosidase form milk was inhibited by 5 mM mannose 6-phosphate
